For experiment [1], the target named is T1, LR (Mac), LR 1–313 (Plenodomus lingam, UniProt Q9HGT7).
T1 construct: gene ops; full-length 1-313, C-terminal polyhistidine tag, codon-optimised synthetic gene, expressed in Leishmania tarentolae (LEXSY), DDM; likely trimer; residues 42-286 resolved
T1 sequence (Q9HGT7 1-313): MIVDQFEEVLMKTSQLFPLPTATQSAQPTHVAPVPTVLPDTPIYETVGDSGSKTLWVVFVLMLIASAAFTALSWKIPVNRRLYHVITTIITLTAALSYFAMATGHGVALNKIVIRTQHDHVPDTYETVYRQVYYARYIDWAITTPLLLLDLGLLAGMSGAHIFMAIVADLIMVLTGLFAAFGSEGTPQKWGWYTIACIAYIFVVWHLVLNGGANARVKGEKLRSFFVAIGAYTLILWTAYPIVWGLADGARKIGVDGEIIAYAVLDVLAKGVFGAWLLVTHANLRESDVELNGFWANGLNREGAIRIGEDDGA
Nature of the experiment: X-ray crystallography, […] Å. The class given is binding. The note with it: covalent; retinal Schiff base at K270; pH 7.0.

In experiment [2] the target is T2, LR 49–313 (Plenodomus lingam, UniProt Q9HGT7).
T2 construct: gene ops; N-terminally truncated 49-313, C-terminal polyhistidine tag, codon-optimised synthetic gene, expressed in Leishmania tarentolae (LEXSY), DDM; mostly monomer
T2 sequence (Q9HGT7 49-313): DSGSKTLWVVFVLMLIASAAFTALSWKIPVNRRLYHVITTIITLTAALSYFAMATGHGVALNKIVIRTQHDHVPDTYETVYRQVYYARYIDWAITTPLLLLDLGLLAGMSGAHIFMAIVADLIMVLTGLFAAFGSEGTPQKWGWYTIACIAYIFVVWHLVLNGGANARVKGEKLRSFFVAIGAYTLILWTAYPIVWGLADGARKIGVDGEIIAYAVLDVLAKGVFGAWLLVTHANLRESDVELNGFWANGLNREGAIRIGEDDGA
The experiment is described as follows: time-resolved absorption spectroscopy (photocycle). The note with it: covalent; DDM micelles; 5 μM all-trans-retinal added at solubilization. The class given is binding.

Experiment [3] deals with Leptosphaeria rhodopsin LR (Mac), full-length (residues 1–313) (Leptosphaeria maculans). Nature of the experiment: SEC; Superdex 200 Increase 10/300 GL, 0.05% DDM micelles; masses calculated from retention volume at pH 8.0 (results; the methods give a SEC buffer of pH 6.5, 0.2 M NaCl); trimer to monomers.
Experiment [4] has the same target. Nature of the experiment: cross-linking; glutaraldehyde vapor for 30 min, then gradient SDS-PAGE 18.5-8%; protein in DDM micelles; untreated samples as control.
In experiment [5] the target is Leptosphaeria rhodopsin LR, N-terminally truncated (residues 49–313) (Leptosphaeria maculans). The experiment is described as follows: SEC; Superdex 200 Increase 10/300 GL, 0.05% DDM micelles; masses calculated from retention volume at pH 8.0 (results; the methods give a SEC buffer of pH 6.5, 0.2 M NaCl); trimer to monomers.
Experiment [6] has the same target. The experiment is described as follows: cross-linking; glutaraldehyde vapor for 30 min, then gradient SDS-PAGE 18.5-8%; protein in DDM micelles; untreated samples as control.

Turning to `CC1=C(/C=C/C(C)=C/C=C/C(C)=C/C=O)C(C)(C)CCC1` [ATR, all-trans-retinal], the “X-ray crystallography, 2.2 Å” value in experiment [1] is on record as “retinal chromophore covalently attached to the K270 on the TM7”. The “time-resolved absorption spectroscopy (photocycle)” value in experiment [2] was “Both full-length and truncated constructs of LR in DDM micelles exhibit almost similar relaxation time”.
For “Leptosphaeria rhodopsin LR (Mac), full-length (residues 1–313) (natural protein)”, the ratio between monomers and trimers (monomers:trimers) in experiment [3] was 0.4. Besides, the stoichiometry N – broadly, a count of units in the complex or per binding partner – in experiment [3] is 3; in experiment [4] it was < 3.
Regarding “Leptosphaeria rhodopsin LR, N-terminally truncated (residues 49–313) (domain or fragment)”, the ratio between monomers and trimers (monomers:trimers) in experiment [5] was 40. Besides, the stoichiometry N in experiment [5] is 3; in experiment [6], < 3.

Values taken from publication PMC8245419, “Structure-based insights into evolution of rhodopsins” (Communications Biology, 2021).
